Experimental data published in patent US20090291088A1, “THERAPEUTIC COMBINATIONS OF ANTI-IGF-1R ANTIBODIES AND OTHER COMPOUNDS” (Biogen Idec MA Inc., priority 2008, published 2009).
Read-outs that look alike come from different tables or passages of the source.

B1: M14-C03: anti-IGF-1R antibody, allosteric blocker of IGF-1 and IGF-2 (antibody, V domains shown)
VH: EVQLLESGGGLVQPGGSLRLSCAASGFTFSKYMMSWVRQAPGKGLEWVSYISPSGGLTWYADSVKGRFTISRDNSKNTLYLQMNSLRAEDTAVYYCARDGARGYGMDVWGQGTTVTVSS
VL: DIQMTQSPATLSLSPGERATLSCRASQSVSSYLAWYQQKPGQAPRLLIYDASNRATGIPARFSGSGSGTDFTLTISSLEPEDFAVYYCQQRSNWPPEVTFGPGTKVDIK
modifications: Antibody variable heavy chain sequence; Antibody variable light chain sequence
B2: Fab M12-E01: human anti-human IGF-1R Fab from phage display library; VH SEQ ID NO:4, VL SEQ ID NO:68 (antibody, V domains shown)
VH: EVQLLESGGGLVQPGGSLRLSCAASGFTFSPYSMLWVRQAPGKGLEWVSSIGSSGGSTRYADSVKGRFTISRDNSKNTLYLQMNSLRAEDTAMYYCARVRGILHYDILIGRNLYYYYMDVWGKGTTVTVSS
VL: QYELTQPPSVSEAPRQRVTISCSGSSSNIGNNAINWYQQLPGKPPKLLIYYDDLLPSGVSDRFSGSKSGTSGSLAISGLQSEDEADYYCAAWDDNLNGVIFGGGTKLTVL
modifications: Antibody variable heavy chain sequence; Antibody variable light chain sequence
B3: 20C8.3B8: murine anti-human IGF-1R monoclonal antibody from hybridoma; VH SEQ ID NO:43, VL SEQ ID NO:103 (antibody, V domains shown)
VH: DVQLQESGPDLVKPSQSLSLTCTVTGYSITSGYSWHWIRQFPGNKLEWMGYIHYSGGTNYNPSLKSRISITRDTSKNQFFLQLNSVTTEDTATYYCARSGYGYRSAYYFDYWGQGTTVTVSS
VL: DIVLTQSPASLAVSLGQRATISCRASKSVSTSAYSYMHWYQQKPGQPPKLLIYLASNLESGVPARFSGSGSGTDFTLNIHPVEEEDAATYYCQHSRELPYTFGGGTKLEIK
modifications: Antibody variable heavy chain sequence; Antibody variable light chain sequence
B4: 20D8.24B11: murine anti-human IGF-1R monoclonal antibody from hybridoma; VH SEQ ID NO:53, VL SEQ ID NO:103 (antibody, V domains shown)
VH: DVQLQESGPDLVKPSQSLSLTCTVTGYSITSGYSWHWIRQFPGNKLEWMGYIHYSGGTNYNPSLKSRISITRDTSKNQFFLQLNSVTTEDTATYYCARSGYGYRSAYYFDYWGQGTTLTVSS
VL: DIVLTQSPASLAVSLGQRATISCRASKSVSTSAYSYMHWYQQKPGQPPKLLIYLASNLESGVPARFSGSGSGTDFTLNIHPVEEEDAATYYCQHSRELPYTFGGGTKLEIK
modifications: Antibody variable heavy chain sequence; Antibody variable light chain sequence

Columns and labels:
IGF-1R phosphorylation = target: T1, IGF-1R phosphorylation (Homo sapiens, UniProt P08069); experiment: Inhibition of IGF-1 and IGF-2 mediated IGF-1R phosphorylation in MCF-7 cells (ELISA); format: cell-based; conditions: for Inhibition of IGF-1R Phosphorylation IGF-1 / Inhibition of IGF-1R Phosphorylation IGF-2: Fabs, MCF-7; for Inhibition of IGF-1R Phosphorylation IGF-1: IGF-1 stimulated; for Inhibition of IGF-1R Phosphorylation IGF-2: IGF-2 stimulated; for Inhibition of IGF-1R.pTyr IGF-1 / Inhibition of IGF-1R.pTyr IGF-2: murine monoclonal antibodies
T1 construct: wild type IGF-1R expressed on MCF-7 tumor cells; endogenous in cells; host or cells: MCF-7
Experimental: Cell lines: IGF1R expressing human breast carcinoma cell line MCF-7 (NCI) were maintained at 37° C. and 5% CO2 in MEM eagle (ATCC) containing 10% FBS, 1× non-essential amino acids, 2 mM L-glutamine, 1 mM sodium pyruvate and 1000 U/ml penicillin and streptomycin. Cells were sub-cultured twice weekly for maintenance and assay, and used with a maximum of 12 passages.
MCF-7 cells were plated in 2 ml growth media at 2×10^5 to 4.0×10^5 cells/well in Ploy-D-Lysine coated 12 well plates (BD Biosciences, #35-6470) and cultured at 37° C., 5% CO2. At 48 hours, media removed and cells serum starved overnight at 37° C., 5% CO2 Serum free media was removed and control or test antibodies at indicated concentration were added in 350 ul of fresh serum free media and incubated for 1 hour at room temperature, or alternately at 37° C. Fabs were tested at 200 nM, 20 nM and 2 nM concentration and the mAbs were tested at 67, 6.7 and 0.67 nM. The commercial anti-IGF-1R control antibody used was αIR3 (EMD biosciences, Oncogene Research products, #D27249). […] Ligand was incubated at […] for 37° C. antibody experiments. Cells were lysed in 1× cell lysis buffer (Cell Signal Technologies, #9803) with 1 mM PMSF for 1 hour at room temperature.
Cell lysates were added to ELISA plates pre-coated with IGF-1Rp antibody (Clone 1-2, Biosource International, #AHR0361) and incubated for 2 hours. Following which plates were washed and the plate bound phosphorylated receptor was detected with the biotin labeled anti-phosphotyrosine antibody 4G10 (Catalog #16-103, Upstate Cell Signaling Solutions (Lake Placid, N.Y. (now part of Millipore, Concord, Mass. (USA)) and streptavidin-HRP (BD Pharmingen, #554066). Assay is developed by addition of TMB substrate (Kierkegaard & Perry, #50-76-00) and color stopped by addition of […] (LabChem, Cat#LC25830-1). Optical density is measured at 450 nm using a Molecular Devices plate reader and percent inhibition over the ligand control is calculated for each antibody-ligand sample.
The effect of human anti-IGF-1R antibodies on IGF-1R signaling was evaluated using MCF-7 cells (human breast adenocarcinoma cells).

[1] = target: T2, IGF-1R expressed on MCF-7 cells (Homo sapiens, UniProt P08069); experiment: Flow cytometry binding to wild type IGF-1R on MCF-7 tumor cells
T2 construct: wild type IGF-1R expressed on MCF-7 tumor cells; endogenous in cells; host or cells: MCF-7
Experimental: The ability of Fabs to bind to the wild type IGF-1R was determined by flowcytometry using MCF-7 tumor cell line.
MCF-7 cells (Human Breast Adenocarcinoma from NCI) were split 24 hours prior to the setup of the assay to obtain 70% confluent monolayer. Routinely, MCF-7 cell line was maintained within 20 passages. Cells were lifted with cell dissociation buffer (Gibco catalog #13151-014), counted, washed and adjusted to 1×10^6 cells/ml and one ml of cells were then added to each tube (12×75 mm tube Falcon catalog# 352054). Cells were pelleted and supernatant removed by centrifugation at 1200 rpm for 5 min and 100 μl of diluted antibodies were then added to the cell pellet. Purified Fabs were tested at a starting concentration of either 210 or 60 μg/ml with 1:3 dilutions in FACS buffer, down to 0.001 μg/ml. FACS buffer used throughout the assay was PBS (without Ca++/Mg++) containing 1% BSA (Sigma catalog# A-7906; Sigma-Aldrich Corp. (St. Louis, Mo., USA)) and 0.1% Sodium Azide (Sigma catalog #S2002). As a positive control IR3 a murine antibody (Ab-1; Calbiochem #GR11L) was used. Samples were allowed to incubate on ice for 1 hour and 15 minutes then were washed with 2 ml FACS buffer and centrifuged at 1200 rpm for 5 minutes at 4° C. The supernatant was aspirated and 100 μl of the secondary detection antibody was added to each corresponding tube in FACS buffer. Samples were then incubated for 30 minutes on ice, in the dark. Cells were washed as described above, then, re-suspended in […] FACS buffer per tube/sample.
Cells were stained for live cell determination with Propidium Iodide staining solution (PI for dead cell exclusion; BD Pharmingen catalog# 51-66211E or 556463; use at 1:500 final in FACS buffer). […]
Once samples have been run and geometric means determined, antibody concentration (X axis) vs. geometric mean (Y axis) was graphed to the log 10, using Graphpad Prism (Prism Graph) graphing program. […]
The binding activity of human antibodies to wild type IGF-1R expressed on tumor cells was determined by flow cytometry. […]

[2] = murine monoclonal antibodies, read-out: Binding (EC50nM) Tumor MCF-7

| Molecule | Inhibition of IGF-1R Phosphorylation IGF-1 (IGF-1R phosphorylation) | Inhibition of IGF-1R Phosphorylation IGF-2 (IGF-1R phosphorylation) | EC50 ([1]; purified Fabs, read-out: FACS Binding MCF-7 EC50nM) [nM] | EC50 [1, 2] [nM] | Inhibition of IGF-1R.pTyr IGF-1 (IGF-1R phosphorylation) | Inhibition of IGF-1R.pTyr IGF-2 (IGF-1R phosphorylation) |
| --- | --- | --- | --- | --- | --- | --- |
| B1 | ++ (>30%@1ug/ml) | ++ (>30%@1ug/ml) | – | – | – | – |
| B2 | ++ (>30%@1ug/ml) | + (>30%@10 ug/ml) | 7.4 | – | – | – |
| B3 | – | – | – | 1.23 | +++ (>30%@0.1 μg/ml) | ++ (>30%@1 μg/ml) |
| B4 | – | – | – | 1.3 | +++ (>30%@0.1 μg/ml) | ++ (>30%@1 μg/ml) |
